As a reminder, the Kd is the constant that tells how readily two partners part at equilibrium. Read a low Kd as tighter binding.

In article PMC2831308 one finds Kd data, which are given here for one sequence.

This data set deals with carboxyltransferase (CT) alpha2beta2, wild-type (Escherichia coli). The data set is described as follows: EMSA.

Regarding “CT alpha transcript, 213 nt upstream of AUG to gene end”, the equilibrium dissociation constant (Kd) came out at 0.145 µM.
